The source of these data is US7989588B2, “Cell permeable peptide” (Osaka University, priority 2005, dated 2011).

The subject of this data set is A431 cells. The data set can be described thus: Evaluation of intracellular transfer ability of peptide (cytotoxicity test by PSIF; MTT assay). Format: cell-based, human. To be noted: 5 μL culture supernatant containing fusion body of peptide and PSIF, cycloheximide 10 μg/mL, 24 hours, viability of TAT peptide (Tat 48-60)-PSIF group taken as 100%. On the procedure:
Subsequently, using a fusion body of the peptide and PSIF (protein synthesis inhibitory factor) obtained by recombining each library gene in a PSIF-expressing vector, the intracellular transfer activity of the peptide was evaluated using the cytotoxicity by PSIF as an indicator. […] The screening was performed using a supernatant of the culture of Escherichia coli producing the fusion body of the peptide and PSIF. As a result, it can be confirmed that the clone having the ability to penetrate into the cell is selectively enriched as the panning is repeated. It was successful to yield many clones having a higher introduction efficiency than TAT peptide currently described to be the most excellent in introduction efficiency.
The plasmids collected from the library (input) made and the libraries after the 2nd, 3rd and 4th panning were treated with NcoI (Toyobo Co., Ltd.) and NotI. A plasmid expressing the fusion body of the peptide and PSIF was constructed by incorporating the treated plasmid into PSIF expression vector pY7 (PSIF expression codons had been incorporated into pCantab5e) previously treated with NcoI and NotI using a ligation kit (Takara Shuzo Co., Ltd.). […]; A04646) or Pseudomonas microbial cell exotoxin (GenBank; K01397) (FIG. 6) was utilized.
The plasmid expressing the fusion body of the peptide and PSIF was introduced into TG1 by electroporation, and resulting colonies were randomly picked up into a 96-well plate (NUNC™) and cultured overnight. To a plate in which 100 μL of the 2YT medium containing 50 μg/mL of ampicillin and 2% glucose was newly added, 10 μL of the culture medium cultured overnight was added and cultured until OD600=0.4 to 0.5. The culture was centrifuged at 3,000 rpm for 20 minutes, the supernatant was removed, and 200 μL of the 2YT medium containing 1 mM IPTG (Sigma Aldrich Inc.) and 50 μg/mL of ampicillin was added to the plate, which was then cultured at 37° C. for 12 hours. The culture was centrifuged again at 3,000 rpm for 20 minutes, and the resulting supernatant was subjected to the following screening.
A431 cells diluted at 1.0×10^4 cells/well with Opti-MEM (Invitrogen™ life technologies) were seeded in a 96-well plate, and cycloheximide (Wako Pure Chemical Industries Ltd.) at a final concentration of 10 μg/mL was added thereto. Then, 5 μL of the culture supernatant made according to the above method was added, and the cells were cultured at 37° C. under the saturated vapor pressure and 5% carbon dioxide gas phase for 24 hours. Subsequently, 10 μL/well of 5 mg/mL of MTT (Wako Pure Chemical Industries Ltd.) solution was added, and further cultured at 37° C. for 4 hours. Then, 100 μL/well of 20% SDS (Wako Pure Chemical Industries Ltd., Osaka, Japan)/0.01 N HCl was added and the plate was left stand in a dark place for 4 hours. The intracellular transfer ability of the peptide was evaluated using the cytotoxicity by PSIF introduced into the cells by the peptide as the indicator by measuring absorbance using a microplate reader (Test wave length: 595 nm/Reference wave length: 655 nm). Viability was calculated by making the viability in the group treated with the culture supernatant containing the fusion body of the TAT peptide (Tat 48-60) and PSIF 100%.
Consider “SSGANYFFNAIYDFLSNF [SEQ ID NO 15, cell permeable peptide, tested as fusion body with PSIF]”, for which the Viability result is on record as “about 35%”.

With “SPTRPTHQGLLPVSNKYT [SEQ ID NO 13, cell permeable peptide, tested as fusion body with PSIF]”, the Viability entry is “about 77%”. For “RRRRNRTRRNRRRVR [SEQ ID NO 4, cell permeable peptide, tested as fusion body with PSIF]” the value was “about 93%”; for “MSDPNMNPGTLGSSHILW [SEQ ID NO 10, cell permeable peptide, tested as fusion body with PSIF]”, “about 30%”; for “GRKKRRQRRRPPQ [SEQ ID NO 17, TAT peptide (Tat 48-60) derived from HIV Tat protein, reference compound]”, 100%. Regarding “GLFNWLQLRPPSW [SEQ ID NO 2, cell permeable peptide, tested as fusion body with PSIF]”, the Viability result was “about 80%”.

As for “SGEHTNGPSKTSVRWVWD [SEQ ID NO 6, cell permeable peptide, tested as fusion body with PSIF]”, the Viability entry is “about 35%”. In the case of “GTSRANSYDNLKSETLTQ [SEQ ID NO 16, cell permeable peptide, tested as fusion body with PSIF]” it was “about 15%”. In the case of “QDGGTWHLVAYCAKSHRY [SEQ ID NO 9, cell permeable peptide, tested as fusion body with PSIF]” it was “about 45%”. In the case of “STHLQYHVNYTSRTVVSM [SEQ ID NO 8, cell permeable peptide, tested as fusion body with PSIF]” it was “about 60%”; in that of “GIASNGQLPTPKT [SEQ ID NO 5, cell permeable peptide, tested as fusion body with PSIF]”, “about 35%”. For the sequence “GSNFFYQHRLPFS [SEQ ID NO 1, cell permeable peptide, tested as fusion body with PSIF]”, the Viability result was “about 45%”.

“YSSAYEWFNRYKQPYYEL [SEQ ID NO 14, cell permeable peptide, tested as fusion body with PSIF]”: the Viability result is “about 65%”. Take “GILLRNQVLPPQI [SEQ ID NO 3, cell permeable peptide, tested as fusion body with PSIF]”: the Viability result is on record as “about 65%”. For “SPGNQSTGVIGTPSFSNH [SEQ ID NO 11, cell permeable peptide, tested as fusion body with PSIF]”, the Viability entry is reported as “about 45%”. For “STAPGSLQEDILDSVPA [SEQ ID NO 12, cell permeable peptide, tested as fusion body with PSIF]”, the Viability result was “about 85%”.

For “SMTTMEFGHSMITPYKID [SEQ ID NO 7, cell permeable peptide, tested as fusion body with PSIF]”, the Viability result is “about 45%”.
